From patent publication US6623741B1, “Methods and compositions for inhibition of membrane fusion-associated events including RSV transmission” (Trimeris, Inc., priority 2000, dated 2003)

What was measured:
[1] = Circular dichroism spectroscopy (helicity, thermal stability); type: physicochemical
Description: Circular Dichroism Spectroscopy:
Circular Dichroism (CD) spectra were obtained using an AVIV Associates 62DS spectrometer equipped with a thermoelectric temperature controller. Spectra were obtained in 0.1, 0.5 and 1.0 cm quartz cells at 1° C. with 0.5 nm steps from 200 to 260 nm, 1.5 nm bandwidth and an averaging time of 4 sec/step. After the cell/buffer blank was subtracted, spectra were smoothed using a third-order least-squares polynomial fit with a conservative (5-10 point) window size to give random residuals. Mixing experiments were performed by comparing the spectrum of the two peptides mixed together in a 0.1 cm path length cell at the desired concentrations (referred to herein as the “experimental” spectrum) to the sum of the individual spectra of the peptides, each solution in a 0.1 cm path length cell (referred to herein as the “model spectrum” for no peptide interaction or “model for no interaction”).
Raw ellipticity values were converted to mean residue ellipticity using standard methods (Cantor & Schimmel, 1980, Biophysical Chemistry Part II: Techniques for the Study of Biological Structure and Function, W.H. Freeman and Co., New York). Conversions for the mixing experiment spectra were performed using a peptide length corresponding to the average of the two peptides. Thermal stability measurements were performed in 2° C. steps, with 1 minute equilibration times. Spectra were smoothed, converted to mean residue ellipticity, and the corresponding value at 222 nm noted from each spectrum. Percent helicity values were calculated using single value decomposition with a basis set of 33 protein spectra (Johnson & Curtis, 1990, Proteins: Structure, Function and Genetics 7:205-214).

[2] = Analytical ultracentrifugation (sedimentation equilibrium); type: physicochemical
Description: Analytical Ultracentrifugation:
Sedimentation equilibrium experiments were performed on a Beckman Optima XL-A analytical ultracentrifuge at 4° C. Six-channel cells (12 mm optical path length) were used with an An-60 Ti rotor operated at 13,500, 16,000, 17,000, 20,000, 21,000, 24,000, 25,000, 27,500, 30,000 and 35,000 rpm. The cell radii were scanned using 0.001 cm steps with 10 averages/scan. Data were analyzed using Beckman XLA data analysis software (version 3.01 for Windows) and Beckman-Origin software (version 3.78 for Windows). […] The partial specific volumes were held constant for all models considered.
Single data files were normalized to 270 nm absorbance values using Beer's Law. The data obtained with solutions containing the DP107-like peptides were then analyzed using a single ideal species model to determine a weight-averaged molecular weight (Mw). Diagnostic plots of Mw/Mw0 vs. rpm/rpm0 and Mw vs. radial concentration were used to test for sample homogeneity as described, e.g., by McRorie & Voelker, 1993, Self-Associating Systems in the Analytical Ultracentrifuge, Beckman Instruments, Inc., Palo Alto; and Yphantis et al., 1978, in Physical Aspects of Protein Interactions: Proceedings of the Symposium on Protein Interactions, American Chemical Society Meeting, Catsimpoolas, Ed., pp. 275-303, Elsevier, Miami Beach, Fla. When systematic residuals or a Mw higher than the monomer molecular weight indicated the presence of self-association, associative models such as monomer/trimer, monomer/tetramer and monomer/dimer/tetrarner were investigated. The suitability of a particular model (i.e., the goodness of fit) was judged by the trends observed in the residuals (Johnson & Straume, 1994, in Modern Analytical Ultracentrifugation, Schuster et al., eds., pp. 37-65, Birkhauser, Boston). Using the associative model which produced random residuals when fitting individual data files, a simultaneous, global, weighted fit of multiple data files (up to nine files with different concentrations and speeds) was performed to determine the association constant and 95% confidence intervals. To convert the resulting association constant from absorbance units to concentration units, it was assumed that the absorbance of the n-mer is n times that of the monomer.
The data obtained with DP107-like/DP178-like peptide mixtures were first analyzed with a single ideal species model. When a systematic trend in residuals coupled with the Mw not equal to a precise multimer of HR1+HR2 were obtained, and alternate fitting scheme was explored. For this approach, it was assumed that the solution contained fully associated HR1-HR2 complexes and unassociated DP107-like and DP178-like peptides. The mixtures were analyzed with a two-ideal species model, choosing one species to have a molecular weight of either 28,269 Da (corresponding to three DP107-like plus three DP178-like peptides) or […] (corresponding to four DP107-like plus four DP178-like peptides).

M41Δ178 fusion protein = test: T83 ELARA (Biot-T20) IC50 Conc. (nM)
Text: Table printed on a drawing sheet, FIG.24A
Head of the field: T83 ELARA (Biot-T20) IC50 Conc. (nM)
The patent's description of the figure: FIGS. 24A-B: Circular dichroism, cell fusion and competitive inhibition data for alanine walk experiments for the peptide T20, which is also known as DP178.
First copying reader's note: The table breaks off at the bottom of the sheet and continues on FIG. 24B; substituted alanine residues are printed in bold, and the T1342 FP column is empty on this sheet.

[3] = tested on: HIV-1 (HIV-1LAI, HIV-1MN, HIV-1RF, HIV-1SF2); type: cell-based; settings: lowest concentration tested, FIG. 4B
Description: Approximately 7×10^4 Molt cells were incubated with 1×10^4 CEM cells chronically infected with the HIV-1LAI virus in 96-well plates (one-half area cluster plates; Costar, Cambridge, Mass.) in a final volume of 100 μl culture medium as previously described (Matthews, T. J. et al., 1987, Proc. Natl. Acad. Sci. USA 84: 5424-5428). Peptide inhibitors were added in a volume of 10 μl and the cell mixtures were incubated for 24 hr. at 37° C. At that time, multinucleated giant cells were estimated by microscopic examination at a 40× magnification which allowed visualization of the entire well in a single field.
The initial screen for antiviral activity assayed peptides' ability to block syncytium formation induced by overnight co-cultivation of uninfected Molt 4 cells with chronically HIV-1 infected CEM cells. […] In the first of these experiments, serial DP178 (SEQ ID NO:15) peptide concentrations between 10 μg/ml and 12.5 ng/ml were tested for blockade of the cell fusion process. For these experiments, CEM cells chronically infected with either HIV-1LAI, HIV-1MN, HIV-1RF, or HIV-1SF2 virus were cocultivated overnight with uninfected Molt 4 cells.
The next series of experiments involved the preparation and testing of a DP178 (SEQ ID NO:15) homolog for its ability to inhibit HIV-1-induced syncytia formation.
The next series of experiments involved a comparison of DP178 (SEQ ID NO:15) HIV-1 and HIV-2 inhibitory activity.

Substance | %-Helicity ([1]; 35 μM peptide, PBS pH 7) [%] | Tm (midpoint of melting transition) ([1]; 35 μM peptide, PBS pH 7) [°C] | N-mer (weight-averaged molecular weight divided by monomer molecular weight) ([2]; 35 μM) | IC50 (RSV) [µg/mL] | IC50 (M41Δ178 fusion protein) [nM] | also measured
T1590: RSV HR1 (DP107-like) peptide of FIG. 28, shorter than T1581 (Ac-VLHLEGEVNKIKSALLSTNKAVVSLSNGVSVLTSKVLDLKNYI-NH2) [Peptide T1590] | 10 | <10 |  |  |  | 
T1582: RSV HR1 (DP107-like) peptide of FIG. 28, shorter than T1581 (Ac-VLHLEGEVNKIKSALLSTNKAVVSLSNGVSVLTSKVLDLKNYIDK-NH2) [Peptide T1582] | 49 | 22 | 1.5 |  |  | 
Ac-VLHLEGEVNKIKSALLSTNKAVVSLSNGVSVLTSKVLDLKNYIDKQ-NH2 (N-terminus and C-terminus assumed) [Peptide T1581] | 69 | 31 | 1.8 | 3.36 |  | 
Ac-AVSKVLHLEGEVNKIKSALLSTNKAVVSLSNGVSVLTSKVLDLKNYIDKQL-NH2 (N-terminus and C-terminus assumed) [Peptide T1584] | 90 | 53 | 2.1 | 0.23 |  | 
T876: T20 with three consecutive residues changed to three alanine residues (YTSLIHSLIAAAQNQQEKNEQELLELDKWASLWNWF) [Peptide T876] |  |  |  |  | 29 | 
T871: T20 with three consecutive residues changed to three alanine residues (YTSLIHSLIEESQNQQEKNEQELLAAAKWASLWNWF) [Peptide T871] |  |  |  |  | 1160 | 
Ac-SKVLHLEGEVNKIKSALLSTNKAVVSLSNGVSVLTSKVLDLKNYIDKQ-NH2 [Peptide T1583] |  |  |  | 1.09 |  | 
AVSKVLHLEGEVNKIKSALLSTNKAVVSLSNGVSVLTSKVLDLKNYIDKQ (Ac-AVSKVLHLEGEVNKIKSALLSTNKAVVSLSNGVSVLTSKVLDLKNYIDKQ-NH2) [Peptide T1772, RSV DP107-like peptide, residues 153-202 of the RSV F-protein] | 83 | 42 |  |  |  | %-Helicity ([1]; 1 μM T1772): 67%; Tm ([1]; 1 μM T1772): 30 °C; %-Helicity ([1]; 10 μM T1772): 80%; Tm ([1]; 10 μM T1772): 32 °C; %-Helicity ([1]; 50 μM T1772): 84%; Tm ([1]; 50 μM T1772): 42 °C; %-Helicity ([1]; 100 μM T1772): 90%; Tm ([1]; 100 μM T1772): 46 °C; oligomerization state in solution (in words) [2]: trimeric self-association; N-mer (weight-averaged molecular weight divided by monomer molecular weight) ([2]; 25 μM determination): 2.4; Mw, single ideal species model, single data set ([2]; 100 μM, 24,000 rpm): 12,925 Da; average Mw relative to the monomer molecular weight ([2]; average over concentrations): 2.4 times
Ac-SGVAVSKVLHLEGEVNKIKSALLSTNKAVVSLSNGVSVLTSKVLDLKNYIDKQL-NH2 (N-terminus and C-terminus assumed) [Peptide T1623] | 88 | 55 | 2.2 | 0.80 |  | 
Ac-YTSLIHSLIEESQNQQEKNEQAAAELDKWASLWNWF-NH2 [T872] |  |  |  |  | 66 | 
Ac-YTSLIHSLIEESQNQQEKNEQELLELDKWAAAANWF-NH2 [T869] |  |  |  |  | 57 | 
YTNTIYTLLEESQNQQEKNEQELLELDKWASLWNWF [DP-185] |  |  |  |  |  | concentration exhibiting inhibitory activity on HIV-1-induced syncytia formation [3]: ≤ 312.5 ng/mL
